# Test results: IntAct's records for PubMed 21847091
# B1: Abscisic acid receptor PYR1 (Arabidopsis thaliana (Mouse-ear cress)), O49686 (parent)
# chain: MPSELTPEERSELKNSIAEFHTYQLDPGSCSSLHAQRIHAPPELVWSIVRRFDKPQTYKHFIKSCSVEQNFEMRVGCTRDVIVISGLPANTSTERLDILDDERRVTGFSIIGGEHRLTNYKSVTTVHRFEKENRIWTVVLESYVVDMPEGNSEDDTRMFADTVVKLNLQKLATVAEAMARNSGDGSGSQVT
# Variants of: B1
# Details: with HAB1, Q9CAJ0
# Sequence of HAB1, Q9CAJ0 (Q9CAJ0 whole entry): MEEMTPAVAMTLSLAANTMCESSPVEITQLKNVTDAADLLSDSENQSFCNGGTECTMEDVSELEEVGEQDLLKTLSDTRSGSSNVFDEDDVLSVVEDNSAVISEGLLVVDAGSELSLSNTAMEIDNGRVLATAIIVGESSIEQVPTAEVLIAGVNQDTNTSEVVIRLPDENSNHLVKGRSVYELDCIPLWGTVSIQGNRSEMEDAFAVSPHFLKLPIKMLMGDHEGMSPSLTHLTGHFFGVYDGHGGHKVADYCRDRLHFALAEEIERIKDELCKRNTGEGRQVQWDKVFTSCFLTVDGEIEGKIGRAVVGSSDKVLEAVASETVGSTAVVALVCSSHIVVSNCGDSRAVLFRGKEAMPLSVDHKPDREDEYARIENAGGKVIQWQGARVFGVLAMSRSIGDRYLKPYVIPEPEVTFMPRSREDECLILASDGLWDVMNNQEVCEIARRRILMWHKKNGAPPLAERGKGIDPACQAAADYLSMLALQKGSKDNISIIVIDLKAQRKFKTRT
row,Variant,effect of a mutation on the interaction
1,H60P,increasing interaction
